Experimental data reported in patent US20170247475A1 (Boehringer Ingelheim, published 2017).

Columns and labels:
[1] = target: T1, recombinant human VEGF165 (human, UniProt P15692-4 27-191); test: hVEGF165/hVEGFR1-Fc competition ELISA
T1 construct: also called hVEGF165; rhVEGF165
Target sequence in this assay (P15692 other isoform, or with tags, fused parts or gaps limits assumed): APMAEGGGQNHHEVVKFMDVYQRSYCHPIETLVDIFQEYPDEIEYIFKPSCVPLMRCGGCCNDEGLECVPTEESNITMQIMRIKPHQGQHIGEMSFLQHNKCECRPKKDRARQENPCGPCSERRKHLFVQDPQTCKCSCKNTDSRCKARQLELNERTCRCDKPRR

[2] = target: T1, recombinant human VEGF165; test: binding ELISA, coated rhVEGF165
[3] = target: T1, recombinant human VEGF165; test: AlphaScreen competition, 0.05 nM hVEGF165 and 0.05 nM hVEGFR2-Fc; blocked: hVEGFR2-Fc
Target sequence in this assay (P15692 other isoform, or with tags, fused parts or gaps limits assumed): as above

[4] = target: T1, recombinant human VEGF165; test: as above; remark: listed apart in the source
[5] = target: T1, recombinant human VEGF165; test: competition AlphaScreen, blocking of hVEGF165 binding to hVEGFR1-Fc
Target sequence in this assay (P15692 other isoform, or with tags, fused parts or gaps limits assumed): as above

[6] = target: T1, recombinant human VEGF165; test: AlphaScreen competition, 0.05 nM hVEGF165 and 0.05 nM hVEGFR2-Fc; blocked: hVEGFR2-Fc; remark: listed apart in the source
Target sequence in this assay (P15692 other isoform, or with tags, fused parts or gaps limits assumed): as above

[7] = target: T1, recombinant human VEGF165; test: as above; remark: listed apart in the source
Target sequence in this assay (P15692 other isoform, or with tags, fused parts or gaps limits assumed): as above

[8] = target: T1, recombinant human VEGF165; test: as above; remark: listed apart in the source
[9] = target: T1, recombinant human VEGF165; test: as above; remark: listed apart in the source
Target sequence in this assay (P15692 other isoform, or with tags, fused parts or gaps limits assumed): as above

[10] = target: T1, recombinant human VEGF165; test: AlphaScreen competition, 0.05 nM hVEGF165 and 0.05 nM hVEGFR1-Fc; blocked: hVEGFR1-Fc
[11] = target: T1, recombinant human VEGF165; test: AlphaScreen competition, 0.05 nM hVEGF165 and 0.05 nM hVEGFR2-Fc; blocked: hVEGFR2-Fc; remark: listed apart in the source
[12] = target: T1, recombinant human VEGF165; test: AlphaScreen competition, 0.05 nM hVEGF165 and 0.05 nM hVEGFR1-Fc; blocked: hVEGFR1-Fc; remark: listed apart in the source
[13] = target: T1, recombinant human VEGF165; test: AlphaScreen competition, 0.05 nM hVEGF165 and 0.05 nM hVEGFR2-Fc; blocked: hVEGFR2-Fc; remark: listed apart in the source
[14] = target: T1, recombinant human VEGF165; test: competition AlphaScreen, blocking of hVEGF165 binding to hVEGFR2-Fc
[15] = target: T1, recombinant human VEGF165; test: KD1; SPR Biacore T100 on hVEGF165
[16] = target: T1, recombinant human VEGF165; test: AlphaScreen competition, 0.05 nM hVEGF165 and 0.05 nM hVEGFR2-Fc; blocked: hVEGFR2-Fc; remark: listed apart in the source
[17] = target: T1, recombinant human VEGF165; test: AlphaScreen competition, 0.05 nM hVEGF165 and 0.05 nM hVEGFR1-Fc; blocked: hVEGFR1-Fc; remark: listed apart in the source

% inhibition [1] | IC50 [1] | EC50 [2] | IC50 (read off the curve) [3] | IC50 (read off the curve) [4] | IC50 (read off the curve) [5] | IC50 (read off the curve) [6] | IC50 (read off the curve) [7] | IC50 (read off the curve) [8] | IC50 (read off the curve) [9] | IC50 (read off the curve) [10] | IC50 (read off the curve) [11] | IC50 (read off the curve) [12] | IC50 (read off the curve) [13] | IC50 (read off the curve) [14] | Kd [15] | IC50 (read off the curve) [16] | IC50 (read off the curve) [17] | Binder
64% | 0.5 nM | 0.297 nM |  |  |  |  |  |  |  |  |  |  |  |  |  |  |  | VEGFBII23B04 (VHH, also called VEGFBII23B4; VEGFBII23B04 (wt)) VHH: EVQLVESGGGLVQTGDSLRLSCEVSGRTFSSYSMGWFRQAQGKEREFVVAISKGGYKYDSVSLEGRFTISKDNAKNTVYLQINSLKPEDTAVYYCASSRAYGSSRLRLADTYEYWGQGTQVTVSS
 |  |  | ~0.2 nM | ~0.5 nM | ~0.4 nM | ~0.2 nM | ~0.5 nM | ~0.5 nM | ~0.4 nM | ~0.8 nM | ~0.2 nM | ~0.5 nM | ~0.4 nM | ~0.4 nM | 0.75 nM | ~0.4 nM | ~0.5 nM | VEGFBII038 (VHH, also called VEGFBII0038; VEGFBII00038) VHH: DVQLVESGGGLVQPGGSLRLSCAASGRTFSSYSMGWFRQAPGKEREFVVAISKGGYKYDAVSLEGRFTISRDNAKNTVYLQINSLRPEDTAVYYCASSRAYGSSRLRLADTYEYWGQGTLVTVSS
